According to patent US20230357323A1, “HUMAN IL23 RECEPTOR BINDING POLYPEPTIDES” (University of Washington, priority 2020, published 2023):
Read-outs that look alike come from different tables or passages of the source.

T1: human IL-23R (hIL-23R) (Homo sapiens, UniProt Q5VWK5)
T1 construct: his tag (C); purchased
T1 sequence (Q5VWK5 24-629): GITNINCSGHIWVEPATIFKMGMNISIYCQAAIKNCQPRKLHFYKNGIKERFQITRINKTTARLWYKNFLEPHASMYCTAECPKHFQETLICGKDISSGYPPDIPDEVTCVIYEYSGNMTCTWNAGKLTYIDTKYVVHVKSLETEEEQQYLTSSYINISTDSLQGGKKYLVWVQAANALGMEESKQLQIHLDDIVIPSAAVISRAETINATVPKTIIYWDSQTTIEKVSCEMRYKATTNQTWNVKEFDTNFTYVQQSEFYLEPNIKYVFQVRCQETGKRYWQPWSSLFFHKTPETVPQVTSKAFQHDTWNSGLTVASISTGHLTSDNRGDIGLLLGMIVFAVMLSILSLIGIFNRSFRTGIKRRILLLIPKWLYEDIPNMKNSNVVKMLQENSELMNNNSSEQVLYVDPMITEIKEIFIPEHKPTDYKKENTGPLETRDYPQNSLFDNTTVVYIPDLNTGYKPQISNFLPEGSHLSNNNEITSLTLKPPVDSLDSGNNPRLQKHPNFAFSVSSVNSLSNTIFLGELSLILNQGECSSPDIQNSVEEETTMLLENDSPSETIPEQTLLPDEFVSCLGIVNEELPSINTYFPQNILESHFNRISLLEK

B1: … (protein)
chain 1: MESEKYLRELVKKYYEGKLSVQEAVEEVRKYARKKGLEAWMLTWMFMELVKRYI
chain 2: MESEKYLRELVKKYYEGKLSVQEAVEEVRKYARKKGLEAWMLTWMFMELVKRYI
notes: computational design, 3-helix bundle, 54 residues
B2: NLWQIFYQLSTILKRTGDPTAKKLLKALAEALKKGDEKALKELAKKATKYIRS (protein)
chain 1: NLWQIFYQLSTILKRTGDPTAKKLLKALAEALKKGDEKALKELAKKATKYIRS
chain 2: NLWQIFYQLSTILKRTGDPTAKKLLKALAEALKKGDEKALKELAKKATKYIRS
notes: computational design, 3-helix bundle, 53 residues

What was measured:
human IL-23R (hIL-23R) = molecular target: T1, human IL-23R (hIL-23R); assay: Biolayer interferometry (BLI) binding to hIL-23R; conditions: biolayer interferometry binding titrations; read-out: affinity (KD) for hIL-23R
Excerpt: Two designs, 23R_A (SEQ ID NO:10) and 23R_B (SEQ ID NO:110), were highly enriched in the final selection pool and were chosen for further biochemical characterization. Both designs are 3-helix bundles (54 and 53 residues, respectively) which incorporate the native Trp hotspot at the N-terminal end of a helix such that IL-23R residue D118 forms a helix-capping hydrogen bond with the Trp hotspot's free backbone amine, similar to the αD helix of p19 (FIG. 1D). In both designs, this central binding helix has a larger interaction surface with hIL-23R, mediated by additional de novo hotspots, than p19. […]
Variants were first screened for relative binding to hIL-23R with biolayer interferometry (BLI). hIL-23R was immobilized on the BLI sensor tips and binding to each variant in solution at a constant concentration (50 nM) was measured to qualitatively determine relative performance of the variants. For the best-performing variants, binding constants (KD, including kon, and koff) were quantitatively determined with BLI titration experiments in triplicate. […]
Qualitative and quantitative assessment of binding affinity was performed using biolayer interferometry (ForteBio Octet™ […] and associated software for analysis). […] Kinetic constants were determined from the mathematical fit of a 1:1 binding model.

[1] = Circular dichroism temperature and chemical denaturant (GuHCl) melts; format: physicochemical
Method: FIG. 3. Stability analysis of B08, a representative affinity-matured combinatorial variant and BO4dslf02, a representative disulfide-stabilized variant. (A) Designed proteins were incubated in simulated gastric or intestinal fluids and degradation was assessed by SDS PAGE at 5, 15, 30 and 60 minutes, 4 and 24 hours. (B) Resistance to temperature and chemical denaturant (GuHCl) was assessed by circular dichroism, measuring the helical signature (signal at 222 nm) in the conditions shown normalized to baseline (25° C. and 0 M GuHCl).
CD spectra were recorded with a J-1500 Circular Dichroism Spectrometer (JASCO). Proteins were assayed at […] in DPBS free of MgCl2 and […]. (Life Technologies) with guanidinium hydrochloride from 0 to 6 M, and data were collected at 25° C. For temperature melts, proteins at […] were heated from 25° C. to 95° C. over approximately 1.5 hours.

Molecule | Kd (human IL-23R (hIL-23R)) [nM] | stability by circular dichroism (CD) ([1]; high temperature and high concentrations of chemical denaturant) | stability by circular dichroism (CD) [1]
B1 | 26 ± 1 | high stability | 
B2 | 70 ± 50 |  | high stability
